Like-named read-outs stand apart in the source and are kept apart here.
B1: MX1045 (bispecific antibody)
chain 1: EIVLTQSPGTLSLSPGETATLSCRASQSFSSDLAWYQQKPGQAPRLLIYGASSRATGIPDRFSGSGSGTDFTLTISRLEPADFAVYYCQQYGSSPPVTFGGGTKVEIKGGSSGQTVVTQEPSFSVSPGGTVTLTCGLSSGSVSTAYFPSWYQQTPGQAPRTLIYGTNTRSSGVPDRFSGSILGNKAALTITGAQADDESDYYCVLYMGRGIVVFGGGTKLTVLGGGGSGGSGSGGGGSASGSGQVQLVESGGGVVQPGRSLRLSCAASGFTLSSYGMHWVRQAPGKGLEWVAVISYDGSNKYYVDSVKGRFTISRDNSKNTLYLQMNSLRAEDTAVYYCRWAYWELLPDYYYGMDVWGQGTTVTVSSGGSSGEVQLVESGGGLIQPGGSLRLSCAASGVIVSYNYMNWVRQAPGKGLEWVSVIYSGGSTFYADSVRGRFTISRDNSKNTLYLQMNSLRAEDTAVYYCARDLGPAGAFDIWGLGTMVTVSSASGGSGDKTHTCPPCPAPELLGGPSVFLFPPKPKDTLMISRTPEVTCVVVDVSHEDPEVKFNWYVDGVEVHNAKTKPREEQYNSYVVSVLTVLHQDWLNGKEYKCKVSNKALPAPIEKTISKAKGQPREPQVYTLPPCRDELTKNQVSLWCLVKGFYPSDIAVEWESNGQPENNYKTTPPVLDSDGSFFKKLTVDKSRWQQGNVFSCSVLHEALHSHYTQKSLSLSPG
chain 2: QTVVTQEPSFSVSPGGTVTLTCGLSSGSVSTAYFPSWYQQTPGQAPRTLIYGTNTRSSGVPDRFSGSILGNKAALTITGAQADDESDYYCVLYMGRGIVVFGGGTKLTVLGGSSGEIVLTQSPGTLSLSPGETATLSCRASQSFSSDLAWYQQKPGQAPRLLIYGASSRATGIPDRFSGSGSGTDFTLTISRLEPADFAVYYCQQYGSSPPVTFGGGTKVEIKGGGGSGGSGSGGGGSASGSGEVQLVESGGGLIQPGGSLRLSCAASGVIVSYNYMNWVRQAPGKGLEWVSVIYSGGSTFYADSVRGRFTISRDNSKNTLYLQMNSLRAEDTAVYYCARDLGPAGAFDIWGLGTMVTVSSGGSSGQVQLVESGGGVVQPGRSLRLSCAASGFTLSSYGMHWVRQAPGKGLEWVAVISYDGSNKYYVDSVKGRFTISRDNSKNTLYLQMNSLRAEDTAVYYCRWAYWELLPDYYYGMDVWGQGTTVTVSSASGGSGDKTHTCPPCPAPELLGGPSVFLFPPKPKDTLMISRTPEVTCVVVDVSHEDPEVKFNWYVDGVEVHNAKTKPREEQYNSYVVSVLTVLHQDWLNGKEYKCKVSNKALPAPIEKTISKAKGQPREPQVCTLPPSRDELTKNQVSLSCAVKGFYPSDIAVEWESNGQPENNYKTTPPVLDSDGSFFLVSKLTVDKSRWQQGNVFSCSVLHEALHSHYTQKSLSLSPG
B2: A46 + E12 + B8 (protein)
VH 1: QVQLVESGGGVVQPGRSLRLSCAASGFTLSSYGMHWVRQAPGKGLEWVAVISYDGSNKYYVDSVKGRFTISRDNSKNTLYLQMNSLRAEDTAVYYCRWAYWELLPDYYYGMDVWGQGTTVTVSS
VL 1: QTVVTQEPSFSVSPGGTVTLTCGLSSGSVSTAYFPSWYQQTPGQAPRTLIYGTNTRSSGVPDRFSGSILGNKAALTITGAQADDESDYYCVLYMGRGIVVFGGGTKLTVL
VH 2: EVQLVESGGGLIQPGGSLRLSCAASGVIVSYNYMNWVRQAPGKGLEWVSVIYSGGSTFYADSVRGRFTISRDNSKNTLYLQMNSLRAEDTAVYYCARDLGPAGAFDIWGLGTMVTVSS
VL 2: EIVLTQSPGTLSLSPGETATLSCRASQSFSSDLAWYQQKPGQAPRLLIYGASSRATGIPDRFSGSGSGTDFTLTISRLEPADFAVYYCQQYGSSPPVTFGGGTKVEIK
VH 3: EVQLVESGGALIQPGGSLRLSCAASGIIVSANYMSWVRQAPGKGLEWVSVIYSGGSTFYADSVKGRFTISRDNSKNTLYLEMNSLRAEDTAVYYCARDAPILGVSDWGQGTLVTVSS
VL 3: EIVMTQSPAILSVSPGERATLSCRASQSVAINLAWYQQKPGQAPRLLIYAASSRATGIPGRFSGSGSETNFTLTISSLQSGDFAVYYCQQYITWPPSYTFGQGTKLEIK
B3: A19-46 + E8 + B8 (protein)
VH 1: B2 VH 1
VL 1: B2 VL 1
VH 2: QVTLRESGPALVKPTQTLTLTCTFSGFSLSTRGVCVSWIRQPPGKALEWLAFIDWDDDKYYNTSLKTRLTISKDTSKNQVVLTMTNVHPVDTATYYCARISSHHGSSWCTTFDYWGQGALVTVSA
VL 2: DTVMTQSPLSLPVTPGEPASISCRSSQSLLNSNGYNYLDWYVQKPGQSPQLLIYLGSNRASGVPDRFSGSGSGTDFTLKISRVEAEDVGVYYCMQPLQTPLFTFGPGTKVEIK
VH 3: B2 VH 3
VL 3: B2 VL 3
B4: A46 + E12 + E8 (protein)
VH 1: B2 VH 1
VL 1: B2 VL 1
VH 2: B2 VH 2
VL 2: B2 VL 2
VH 3: B3 VH 2
VL 3: B3 VL 2
B5: MX1046 (bispecific antibody)
chain 1: EIVLTQSPGTLSLSPGETATLSCRASQSFSSDLAWYQQKPGQAPRLLIYGASSRATGIPDRFSGSGSGTDFTLTISRLEPADFAVYYCQQYGSSPPVTFGGGTKVEIKGGSSGDTVMTQSPLSLPVTPGEPASISCRSSQSLLNSNGYNYLDWYVQKPGQSPQLLIYLGSNRASGVPDRFSGSGSGTDFTLKISRVEAEDVGVYYCMQPLQTPLFTFGPGTKVEIKGGGGSGGSGSGGGGSASGSGQVTLRESGPALVKPTQTLTLTCTFSGFSLSTRGVCVSWIRQPPGKALEWLAFIDWDDDKYYNTSLKTRLTISKDTSKNQVVLTMTNVHPVDTATYYCARISSHHGSSWCTTFDYWGQGALVTVSAGGSSGEVQLVESGGGLIQPGGSLRLSCAASGVIVSYNYMNWVRQAPGKGLEWVSVIYSGGSTFYADSVRGRFTISRDNSKNTLYLQMNSLRAEDTAVYYCARDLGPAGAFDIWGLGTMVTVSSASGGSGDKTHTCPPCPAPELLGGPSVFLFPPKPKDTLMISRTPEVTCVVVDVSHEDPEVKFNWYVDGVEVHNAKTKPREEQYNSYVVSVLTVLHQDWLNGKEYKCKVSNKALPAPIEKTISKAKGQPREPQVYTLPPCRDELTKNQVSLWCLVKGFYPSDIAVEWESNGQPENNYKTTPPVLDSDGSFFKKLTVDKSRWQQGNVFSCSVLHEALHSHYTQKSLSLSPG
chain 2: DTVMTQSPLSLPVTPGEPASISCRSSQSLLNSNGYNYLDWYVQKPGQSPQLLIYLGSNRASGVPDRFSGSGSGTDFTLKISRVEAEDVGVYYCMQPLQTPLFTFGPGTKVEIKGGSSGEIVLTQSPGTLSLSPGETATLSCRASQSFSSDLAWYQQKPGQAPRLLIYGASSRATGIPDRFSGSGSGTDFTLTISRLEPADFAVYYCQQYGSSPPVTFGGGTKVEIKGGGGSGGSGSGGGGSASGSGEVQLVESGGGLIQPGGSLRLSCAASGVIVSYNYMNWVRQAPGKGLEWVSVIYSGGSTFYADSVRGRFTISRDNSKNTLYLQMNSLRAEDTAVYYCARDLGPAGAFDIWGLGTMVTVSSGGSSGQVTLRESGPALVKPTQTLTLTCTFSGFSLSTRGVCVSWIRQPPGKALEWLAFIDWDDDKYYNTSLKTRLTISKDTSKNQVVLTMTNVHPVDTATYYCARISSHHGSSWCTTFDYWGQGALVTVSAASGGSGDKTHTCPPCPAPELLGGPSVFLFPPKPKDTLMISRTPEVTCVVVDVSHEDPEVKFNWYVDGVEVHNAKTKPREEQYNSYVVSVLTVLHQDWLNGKEYKCKVSNKALPAPIEKTISKAKGQPREPQVCTLPPSRDELTKNQVSLSCAVKGFYPSDIAVEWESNGQPENNYKTTPPVLDSDGSFFLVSKLTVDKSRWQQGNVFSCSVLHEALHSHYTQKSLSLSPG
B6: F770-E8 (antibody, V domains shown)
VH: B3 VH 2
VL: B3 VL 2

Key:
Assay in all cases: cell-based or functional assay
[1] = biological target: SARS-CoV-2 Omicron BA.2.75.2 spike protein (SARS-CoV-2)
[2] = biological target: SARS-CoV-2 Omicron BA.4/5 spike protein (SARS-CoV-2)
[3] = biological target: SARS-CoV-2 Omicron BQ.1 spike protein (SARS-CoV-2)
[4] = biological target: SARS-CoV-2 Omicron BQ.1.1 spike protein (SARS-CoV-2)
[5] = biological target: SARS-CoV-2 Omicron XBB spike protein (SARS-CoV-2)
[6] = biological target: SARS-CoV-2 spike (S) protein, Omicron sublineage BF.7 (SARS-CoV-2)
[7] = biological target: SARS-CoV-2 spike (S) protein, Omicron sublineage XBB1.5 (SARS-CoV-2)
[8] = biological target: SARS-CoV-2 spike (S) protein, Omicron sublineage XBB (SARS-CoV-2)
[9] = biological target: SARS-CoV-2 spike (S) protein, Omicron sublineage BQ.1 (SARS-CoV-2)
[10] = biological target: SARS-CoV-2 spike (S) protein, Omicron sublineage BQ.1.1 (SARS-CoV-2)
[11] = biological target: SARS-CoV-2 spike (S) protein, Omicron sublineage XBB (SARS-CoV-2); remark: listed apart in the source
[12] = biological target: SARS-CoV-2 spike (S) protein, Omicron sublineage BA.2.75.2 (SARS-CoV-2)
[13] = biological target: SARS-CoV-2 spike (S) protein, Omicron sublineage BA.4/5 (SARS-CoV-2)

Binder	IC50, pseudovirus neutralization [1] [ng/mL]	IC80, pseudovirus neutralization [1] [ng/mL]	IC50, pseudovirus neutralization [2] [ng/mL]	IC80, pseudovirus neutralization [2] [ng/mL]	IC50, pseudovirus neutralization [3] [ng/mL]	IC80, pseudovirus neutralization [3] [ng/mL]	IC50, pseudovirus neutralization [4] [ng/mL]	IC80, pseudovirus neutralization [4] [ng/mL]	IC50, pseudovirus neutralization [5] [ng/mL]	IC80, pseudovirus neutralization [5] [ng/mL]	IC50, pseudovirus neutralization [6] [nM]	IC80, pseudovirus neutralization [6] [nM]	IC50, pseudovirus neutralization [7] [nM]	IC80, pseudovirus neutralization [7] [nM]	IC50, pseudovirus neutralization [9] [ng/mL]	IC80, pseudovirus neutralization [9] [ng/mL]	IC50, pseudovirus neutralization [10] [ng/mL]	IC80, pseudovirus neutralization [10] [ng/mL]	IC50, pseudovirus neutralization [11] [ng/mL]	IC80, pseudovirus neutralization [11] [ng/mL]	further results
B1	2.91	5.43	2.68	6.06	6.02	22.3	1.5	8.57	6.09	18											
B2											12.9	33.8	12	33							
B3															16	52.2	11.1	17	11.3	17.7	IC50, pseudovirus neutralization [8]: 11.3 nM; IC80, pseudovirus neutralization [8]: 17.7 nM
B4											12	30.6	37.8	96.7							
B5	0.36	1.29	0.9	1.56	1.66	4.08	1.23	3.97	1.26	2.88											
B6															124	5190	496	1800	61.5	705	IC50, pseudovirus neutralization [12]: 1.72 ng/mL; IC80, pseudovirus neutralization [12]: 5.9 ng/mL; IC50, pseudovirus neutralization [13]: 0.13 ng/mL; IC80, pseudovirus neutralization [13]: 0.49 ng/mL

From patent US20240109955A1
